# Data from patent US20160355588A1 (published 2016).
# Like-named read-outs stand apart in the source and are kept apart here.
# How the values were obtained:
# CD3 on Jurkat T cells [1] = molecular target: T1, CD3 on Jurkat T cells (human, UniProt P07766 23-207); experiment: whole cell binding
# CD3 on Jurkat T cells [2] = molecular target: T1, CD3 on Jurkat T cells; experiment: whole cell binding; remark: listed apart in the source
# CD3 on Jurkat T cells [3] = molecular target: T1, CD3 on Jurkat T cells
# CD3 on Jurkat T cells [4] = molecular target: T1, CD3 on Jurkat T cells; remark: listed apart in the source
# v6475 = experiment: whole cell binding
# v1653 = experiment: whole cell binding
Kd (CD3 on Jurkat T cells [1]) [nM],Kd (CD3 on Jurkat T cells [2]) [nM],Binder,further results
~5,~5,v1853 (bispecific antibody) heavy: QVQLVQSGGGVVQPGRSLRLSCKASGYTFTRYTMHWVRQAPGKGLEWIGYINPSRGYTNYNQKVKDRFTISRDNSKNTAFLQMDSLRPEDTGVYFCARYYDDHYCLDYWGQGTPVTVSSASTKGPSVFPLAPSSKSTSGGTAALGCLVKDYFPEPVTVSWNSGALTSGVHTFPAVLQSSGLYSLSSVVTVPSSSLGTQTYICNVNHKPSNTKVDKKVEPKSCDKTHTCPPCPAPELLGGPSVFLFPPKPKDTLMISRTPEVTCVVVDVSHEDPEVKFNWYVDGVEVHNAKTKPREEQYNSTYRVVSVLTVLHQDWLNGKEYKCKVSNKALPAPIEKTISKAKGQPREPQVYVYPPSRDELTKNQVSLTCLVKGFYPSDIAVEWESNGQPENNYKTTPPVLDSDGSFALVSKLTVDKSRWQQGNVFSCSVMHEALHNHYTQKSLSLSPGK not shown light: DIQMTQSPSSLSASVGDRVTITCSASSSVSYMNWYQQTPGKAPKRWIYDTSKLASGVPSRFSGSGSGTDYTFTISSLQPEDIATYYCQQWSSNPFTFGQGTKLQITRTVAAPSVFIFPPSDEQLKSGTASVVCLLNNFYPREAKVQWKVDNALQSGNSQESVTEQDSKDSTYSLSSTLTLSKADYEKHKVYACEVTHQGLSSPVTKSFNRGEC,
~30,~30,v875 (bispecific antibody) chain 1: DIQLTQSPASLAVSLGQRATISCKASQSVDYDGDSYLNWYQQIPGQPPKLLIYDASNLVSGIPPRFSGSGSGTDFTLNIHPVEKVDAATYHCQQSTEDPWTFGGGTKLEIKGGGGSGGGGSGGGGSQVQLQQSGAELVRPGSSVKISCKASGYAFSSYWMNWVKQRPGQGLEWIGQIWPGDGDTNYNGKFKGKATLTADESSSTAYMQLSSLASEDSAVYFCARRETTTVGRYYYAMDYWGQGTTVTVSSAAEPKSSDKTHTCPPCPAPELLGGPSVFLFPPKPKDTLMISRTPEVTCVVVDVSHEDPEVKFNWYVDGVEVHNAKTKPREEQYNSTYRVVSVLTVLHQDWLNGKEYKCKVSNKALPAPIEKTISKAKGQPREPQVYTYPPSRDELTKNQVSLTCLVKGFYPSDIAVEWESNGQPENNYKTTPPVLDSDGSFALVSKLTVDKSRWQQGNVFSCSVMHEALHNHYTQKSLSLSPGK chain 2: not shown,
,,v6750 (bispecific antibody) heavy: QVQLQQSGAELVRPGSSVKISCKASGYAFSSYWMNWVKQRPGQGLEWIGQIWPGDGDTNYNGKFKGKATLTADESSSTAYMQLSSLASEDSAVYFCARRETTTVGRYYYAMDYWGQGTTVTVSSASTKGPSVFPLAPSSKSTSGGTAALGCLVKDYFPEPVTVSWNSGALTSGVHTFPAVLQSSGLYSLSSVVTVPSSSLGTQTYICNVNHKPSNTKVDKKVEPKSCDKTHTCPPCPAPELLGGPSVFLFPPKPKDTLMISRTPEVTCVVVDVSHEDPEVKFNWYVDGVEVHNAKTKPREEQYNSTYRVVSVLTVLHQDWLNGKEYKCKVSNKALPAPIEKTISKAKGQPREPQVYVYPPSRDELTKNQVSLTCLVKGFYPSDIAVEWESNGQPENNYKTTPPVLDSDGSFALVSKLTVDKSRWQQGNVFSCSVMHEALHNHYTQKSLSLSPG not shown light: not shown,Kd (CD3 on Jurkat T cells [3]): ~30 nM; Kd (CD3 on Jurkat T cells [4]): ~30 nM
,,Raji B cells (receptor) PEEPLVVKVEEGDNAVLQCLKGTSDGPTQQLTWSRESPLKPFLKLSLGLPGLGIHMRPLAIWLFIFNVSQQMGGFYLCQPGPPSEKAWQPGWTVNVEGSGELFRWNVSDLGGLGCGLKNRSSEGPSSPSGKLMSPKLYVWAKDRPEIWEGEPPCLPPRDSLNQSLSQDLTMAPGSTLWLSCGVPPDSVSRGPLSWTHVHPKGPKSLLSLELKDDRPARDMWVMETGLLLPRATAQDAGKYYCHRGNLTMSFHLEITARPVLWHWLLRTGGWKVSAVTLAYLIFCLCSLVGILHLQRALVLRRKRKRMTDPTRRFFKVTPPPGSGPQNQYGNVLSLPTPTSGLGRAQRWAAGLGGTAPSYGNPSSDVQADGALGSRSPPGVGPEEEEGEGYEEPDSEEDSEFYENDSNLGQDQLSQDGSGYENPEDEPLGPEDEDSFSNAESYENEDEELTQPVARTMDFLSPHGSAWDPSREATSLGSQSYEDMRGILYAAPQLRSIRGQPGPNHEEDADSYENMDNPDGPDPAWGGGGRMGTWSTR,Kd (v6475): 1.5 nM; Kd (v1653): 1.4 nM
